# How the values were obtained:
# [1] = target: recombinant HUXcc-His6 (Xanthomonas campestris pv. campestris); assay: MST; HUXcc labelled with NT-647 (RED-NHS kit), purified HrpG titrated from 0.001 to 17 μM in a 1:1 series dilution; 1 x MST buffer (50 mM Tris, 150 mM NaCl, 10 mM MgCl2, pH 6) with 0.05% Tween; Monolith NT.115, standard treated capillaries; KD-Fit function
# [2] = target: HrpG (Xanthomonas campestris pv. campestris 8004) (UniProt Q8PBF6); assay: MST; details: MST: 50 mM Tris-HCl pH 7.4, 150 mM NaCl, 10 mM MgCl2, 0.05% Tween-20; EMSA: 10 mM Tris-HCl pH 7.5, 50 mM KCl, 1 mM DTT, 50 ng poly(dI:dC), 0-40 uM protein …
# HrpG = HrpG (Xanthomonas campestris pv. campestris …, UniProt Q8PBF6 1-262); assay: MST; 10 mM MgCl2; MST: 50 mM Tris-HCl pH 7.4, 150 mM NaCl, 10 mM MgCl2, 0.05% Tween-20; EMSA: 10 mM Tris-HCl pH 7.5, 50 mM KCl, 1 mM DTT, 50 ng poly(dI:dC), 0-40 uM protein, 28 C 30 min; details: protein: recombinant; text writes HrpG-His6; chain copies: 2; label: 5'-FAM; blunt
Molecule,Kd [2],also measured
HrpG-His6 recombinant protein (natural protein),,Kd [1]: 0.64 µM
hpa2p MST fragment,2.22 µM,
hrcUp MST fragment,1.79 µM,
hrpEp MST fragment,2.3 µM,
Motif-1 (HrpG consensus motif probe) (dsDNA) DNA 1: CTTCGAAGTGAGAAATTCTATTGGATCCGC DNA 2: GCGGATCCAATAGAATTTCTCACTTCGAAG,,Kd (HrpG): 6.96 ± 1.44 µM
Motif-2 (mutated HrpG motif probe) (dsDNA) DNA 1: CTTCGAAGTGAGAACGGAATCCGGATCCGC DNA 2: GCGGATCCGGATTCCGTTCTCACTTCGAAG,,binding result (HrpG): no binding
